Data from the supplement of paper PMC9876800.

Tested on: peptide library, one residue held at a place counted from the S/T acceptor
Test: relative phosphorylation of the sub-library (ratio to the mean residue at this position); human; higher = residue favoured
Details: L fixed; at +3
In short: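 Spots on streptavidin membranes were phosphorimaged and quantified by densitometry to measure phosphorylation of biotinylated degenerate peptide sub-libraries by purified recombinant kinases, human or orthologue constructs. The reactions ran in 384-well plates for 90 min under kinase-specific conditions, with peptides at 50 μM and 50 μM ATP spiked with γ-32P-ATP. Relative sub-library phosphorylation is the ratio to the mean residue at that position.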

Chain of TSSK1B, construct: Full length (Q9BXA7 whole entry, looked up): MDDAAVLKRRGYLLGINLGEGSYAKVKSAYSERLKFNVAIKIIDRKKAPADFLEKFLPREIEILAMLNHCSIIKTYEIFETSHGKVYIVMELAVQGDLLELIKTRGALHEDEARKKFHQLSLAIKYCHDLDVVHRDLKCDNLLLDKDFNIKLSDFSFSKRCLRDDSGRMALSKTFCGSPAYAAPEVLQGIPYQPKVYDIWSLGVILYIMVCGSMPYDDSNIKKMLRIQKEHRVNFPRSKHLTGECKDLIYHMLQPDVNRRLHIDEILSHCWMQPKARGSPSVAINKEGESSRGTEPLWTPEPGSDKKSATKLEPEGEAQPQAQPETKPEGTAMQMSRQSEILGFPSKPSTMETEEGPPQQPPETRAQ
Chain of CSNK1A1L, construct: Full length (Q8N752 whole entry, looked up): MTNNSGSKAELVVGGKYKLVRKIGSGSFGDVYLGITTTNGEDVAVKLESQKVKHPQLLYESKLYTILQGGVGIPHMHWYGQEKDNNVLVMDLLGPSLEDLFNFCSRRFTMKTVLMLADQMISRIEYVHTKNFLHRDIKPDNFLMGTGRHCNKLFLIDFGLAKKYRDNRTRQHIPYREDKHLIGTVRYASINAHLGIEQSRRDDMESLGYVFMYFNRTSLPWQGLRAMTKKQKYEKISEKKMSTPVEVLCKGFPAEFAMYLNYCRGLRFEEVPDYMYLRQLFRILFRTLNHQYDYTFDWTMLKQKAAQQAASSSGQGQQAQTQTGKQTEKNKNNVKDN
Chain of PAK1, construct: aa150-end (Q13153 150-545, looked up): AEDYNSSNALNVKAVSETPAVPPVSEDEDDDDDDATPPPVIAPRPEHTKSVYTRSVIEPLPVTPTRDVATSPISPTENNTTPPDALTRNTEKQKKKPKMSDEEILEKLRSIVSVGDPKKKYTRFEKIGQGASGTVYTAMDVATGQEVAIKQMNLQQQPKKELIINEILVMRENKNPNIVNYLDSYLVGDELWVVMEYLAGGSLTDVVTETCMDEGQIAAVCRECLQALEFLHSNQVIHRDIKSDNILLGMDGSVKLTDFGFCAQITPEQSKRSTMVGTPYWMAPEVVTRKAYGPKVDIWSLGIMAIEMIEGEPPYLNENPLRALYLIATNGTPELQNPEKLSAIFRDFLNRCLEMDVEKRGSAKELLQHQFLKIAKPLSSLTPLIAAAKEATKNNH
Chain of CDKL1, construct: aa2-304 (Q00532 2-304, looked up): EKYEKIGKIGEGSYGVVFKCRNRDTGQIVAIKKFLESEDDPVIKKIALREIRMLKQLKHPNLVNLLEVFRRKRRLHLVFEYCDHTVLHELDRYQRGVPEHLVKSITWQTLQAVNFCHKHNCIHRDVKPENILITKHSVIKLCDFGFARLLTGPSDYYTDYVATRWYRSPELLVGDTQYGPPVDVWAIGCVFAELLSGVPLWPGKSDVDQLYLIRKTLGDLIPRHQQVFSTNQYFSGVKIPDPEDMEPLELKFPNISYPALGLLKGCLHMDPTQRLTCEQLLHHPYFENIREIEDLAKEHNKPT
Chain of CAMK2D, construct: Full length (Q13557 whole entry, looked up): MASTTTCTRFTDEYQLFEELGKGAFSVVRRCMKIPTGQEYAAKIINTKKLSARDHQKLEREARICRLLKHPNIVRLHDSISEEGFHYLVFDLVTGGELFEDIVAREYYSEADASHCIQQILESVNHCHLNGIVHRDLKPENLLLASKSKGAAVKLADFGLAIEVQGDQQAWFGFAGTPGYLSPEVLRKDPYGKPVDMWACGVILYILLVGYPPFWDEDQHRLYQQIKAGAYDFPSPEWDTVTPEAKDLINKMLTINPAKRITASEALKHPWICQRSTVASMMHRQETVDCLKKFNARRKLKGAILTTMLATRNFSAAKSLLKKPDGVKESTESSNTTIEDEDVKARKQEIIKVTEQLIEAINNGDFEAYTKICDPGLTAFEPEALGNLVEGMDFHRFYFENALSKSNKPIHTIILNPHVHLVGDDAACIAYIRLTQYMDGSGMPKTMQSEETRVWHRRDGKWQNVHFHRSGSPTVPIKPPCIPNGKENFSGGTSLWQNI
Chain of CIT, construct: aa1-449 (O14578 1-449, looked up): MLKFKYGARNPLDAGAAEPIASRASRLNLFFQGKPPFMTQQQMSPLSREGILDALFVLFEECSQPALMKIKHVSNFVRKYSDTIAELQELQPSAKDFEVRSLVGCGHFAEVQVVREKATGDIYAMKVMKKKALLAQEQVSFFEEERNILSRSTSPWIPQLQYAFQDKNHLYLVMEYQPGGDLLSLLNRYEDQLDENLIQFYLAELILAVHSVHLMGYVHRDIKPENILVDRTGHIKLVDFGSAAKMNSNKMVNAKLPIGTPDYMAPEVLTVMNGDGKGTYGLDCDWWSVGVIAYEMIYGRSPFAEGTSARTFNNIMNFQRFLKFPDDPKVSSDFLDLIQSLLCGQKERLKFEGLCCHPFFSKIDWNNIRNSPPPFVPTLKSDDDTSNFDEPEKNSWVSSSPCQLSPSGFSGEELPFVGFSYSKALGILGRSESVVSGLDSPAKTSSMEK
Chain of CSNK1G3, construct: Full length (Q9Y6M4 whole entry, looked up): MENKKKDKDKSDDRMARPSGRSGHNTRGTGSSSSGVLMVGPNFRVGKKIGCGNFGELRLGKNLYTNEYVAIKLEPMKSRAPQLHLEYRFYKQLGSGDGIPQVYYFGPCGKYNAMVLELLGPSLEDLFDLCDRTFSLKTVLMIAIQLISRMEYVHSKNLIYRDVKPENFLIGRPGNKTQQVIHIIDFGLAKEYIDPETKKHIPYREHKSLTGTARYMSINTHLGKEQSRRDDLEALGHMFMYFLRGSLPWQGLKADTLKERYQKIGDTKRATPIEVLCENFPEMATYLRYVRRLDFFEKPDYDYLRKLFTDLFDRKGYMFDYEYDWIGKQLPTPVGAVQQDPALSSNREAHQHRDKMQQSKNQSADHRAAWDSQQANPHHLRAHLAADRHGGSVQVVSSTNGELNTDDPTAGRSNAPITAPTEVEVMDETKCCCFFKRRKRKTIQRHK
Chain of ACVR1B, construct: aa150-end (P36896 150-505, looked up): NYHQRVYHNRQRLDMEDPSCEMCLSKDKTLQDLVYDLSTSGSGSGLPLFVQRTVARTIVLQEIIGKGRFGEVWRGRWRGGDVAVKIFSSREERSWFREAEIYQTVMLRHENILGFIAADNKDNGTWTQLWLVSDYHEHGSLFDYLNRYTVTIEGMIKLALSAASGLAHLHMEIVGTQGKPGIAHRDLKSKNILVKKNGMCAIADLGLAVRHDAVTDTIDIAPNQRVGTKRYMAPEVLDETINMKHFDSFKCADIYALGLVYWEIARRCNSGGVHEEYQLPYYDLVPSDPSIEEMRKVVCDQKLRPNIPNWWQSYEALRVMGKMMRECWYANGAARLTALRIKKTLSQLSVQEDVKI

Substance | relative phosphorylation
CSNK1A1L, construct: Full length (from UniProt Q8N752) | 1.07
CSNK1G3, construct: Full length (from UniProt Q9Y6M4) | 0.772

Same assay, conditions: L fixed; at +4

Substance | relative phosphorylation
CIT, construct: aa1-449 (from UniProt O14578) | 1.01
PAK1, construct: aa150-end (from UniProt Q13153) | 0.77
CAMK2D, construct: Full length (from UniProt Q13557) | 0.686
CDKL1, construct: aa2-304 (from UniProt Q00532) | 0.939
ACVR1B, construct: aa150-end (from UniProt P36896) | 0.818
TSSK1B, construct: Full length (from UniProt Q9BXA7) | 2.43
CSNK1A1L, construct: Full length (from UniProt Q8N752) | 1.11
CSNK1G3, construct: Full length (from UniProt Q9Y6M4) | 0.808

Same assay, conditions: L fixed; at -1

Substance | relative phosphorylation
CIT, construct: aa1-449 (from UniProt O14578) | 0.874
PAK1, construct: aa150-end (from UniProt Q13153) | 0.821
CAMK2D, construct: Full length (from UniProt Q13557) | 0.893
CDKL1, construct: aa2-304 (from UniProt Q00532) | 0.988
ACVR1B, construct: aa150-end (from UniProt P36896) | 1.33
TSSK1B, construct: Full length (from UniProt Q9BXA7) | 0.683
CSNK1A1L, construct: Full length (from UniProt Q8N752) | 1.01
CSNK1G3, construct: Full length (from UniProt Q9Y6M4) | 1.23

Same assay, conditions: L fixed; at -2

Substance | relative phosphorylation
CIT, construct: aa1-449 (from UniProt O14578) | 0.826
PAK1, construct: aa150-end (from UniProt Q13153) | 0.374
CAMK2D, construct: Full length (from UniProt Q13557) | 0.62
CDKL1, construct: aa2-304 (from UniProt Q00532) | 0.909
ACVR1B, construct: aa150-end (from UniProt P36896) | 0.597
TSSK1B, construct: Full length (from UniProt Q9BXA7) | 0.423
CSNK1A1L, construct: Full length (from UniProt Q8N752) | 0.903
CSNK1G3, construct: Full length (from UniProt Q9Y6M4) | 1.05

Same assay, conditions: L fixed; at -3

Substance | relative phosphorylation
CIT, construct: aa1-449 (from UniProt O14578) | 0.25
PAK1, construct: aa150-end (from UniProt Q13153) | 0.415
CAMK2D, construct: Full length (from UniProt Q13557) | 0.626
CDKL1, construct: aa2-304 (from UniProt Q00532) | 0.549
ACVR1B, construct: aa150-end (from UniProt P36896) | 0.85
TSSK1B, construct: Full length (from UniProt Q9BXA7) | 0.418
CSNK1A1L, construct: Full length (from UniProt Q8N752) | 0.811
CSNK1G3, construct: Full length (from UniProt Q9Y6M4) | 0.484

Same assay, conditions: L fixed; at -4

Substance | relative phosphorylation
CIT, construct: aa1-449 (from UniProt O14578) | 0.74
PAK1, construct: aa150-end (from UniProt Q13153) | 0.547
CAMK2D, construct: Full length (from UniProt Q13557) | 1.03
CDKL1, construct: aa2-304 (from UniProt Q00532) | 0.909
ACVR1B, construct: aa150-end (from UniProt P36896) | 0.936
TSSK1B, construct: Full length (from UniProt Q9BXA7) | 0.73
CSNK1A1L, construct: Full length (from UniProt Q8N752) | 1.08
CSNK1G3, construct: Full length (from UniProt Q9Y6M4) | 0.796

Same assay, conditions: L fixed; at -5

Substance | relative phosphorylation
CIT, construct: aa1-449 (from UniProt O14578) | 0.89
PAK1, construct: aa150-end (from UniProt Q13153) | 0.53
CAMK2D, construct: Full length (from UniProt Q13557) | 1.7
CDKL1, construct: aa2-304 (from UniProt Q00532) | 0.976
ACVR1B, construct: aa150-end (from UniProt P36896) | 0.931
TSSK1B, construct: Full length (from UniProt Q9BXA7) | 2.77
CSNK1A1L, construct: Full length (from UniProt Q8N752) | 1.09
CSNK1G3, construct: Full length (from UniProt Q9Y6M4) | 0.91

Same assay, conditions: M fixed; at +1

Substance | relative phosphorylation
CIT, construct: aa1-449 (from UniProt O14578) | 1.14
PAK1, construct: aa150-end (from UniProt Q13153) | 1.58
CAMK2D, construct: Full length (from UniProt Q13557) | 1.72
CDKL1, construct: aa2-304 (from UniProt Q00532) | 0.862
ACVR1B, construct: aa150-end (from UniProt P36896) | 1.33
TSSK1B, construct: Full length (from UniProt Q9BXA7) | 1.23
CSNK1A1L, construct: Full length (from UniProt Q8N752) | 1.03
CSNK1G3, construct: Full length (from UniProt Q9Y6M4) | 1.58

Same assay, conditions: M fixed; at +2

Substance | relative phosphorylation
CIT, construct: aa1-449 (from UniProt O14578) | 0.77
PAK1, construct: aa150-end (from UniProt Q13153) | 1.02
CAMK2D, construct: Full length (from UniProt Q13557) | 0.605
CDKL1, construct: aa2-304 (from UniProt Q00532) | 0.841
ACVR1B, construct: aa150-end (from UniProt P36896) | 0.865
TSSK1B, construct: Full length (from UniProt Q9BXA7) | 1.21
CSNK1A1L, construct: Full length (from UniProt Q8N752) | 1.02
CSNK1G3, construct: Full length (from UniProt Q9Y6M4) | 0.945

Same assay, conditions: M fixed; at +3

Substance | relative phosphorylation
CIT, construct: aa1-449 (from UniProt O14578) | 0.889
PAK1, construct: aa150-end (from UniProt Q13153) | 0.913
CAMK2D, construct: Full length (from UniProt Q13557) | 0.793
CDKL1, construct: aa2-304 (from UniProt Q00532) | 0.9
ACVR1B, construct: aa150-end (from UniProt P36896) | 1.04
TSSK1B, construct: Full length (from UniProt Q9BXA7) | 0.953
CSNK1A1L, construct: Full length (from UniProt Q8N752) | 1.17
CSNK1G3, construct: Full length (from UniProt Q9Y6M4) | 0.748

Same assay, conditions: M fixed; at +4

Substance | relative phosphorylation
CIT, construct: aa1-449 (from UniProt O14578) | 1.03
PAK1, construct: aa150-end (from UniProt Q13153) | 0.783
CAMK2D, construct: Full length (from UniProt Q13557) | 0.711
CDKL1, construct: aa2-304 (from UniProt Q00532) | 0.953
ACVR1B, construct: aa150-end (from UniProt P36896) | 0.967
TSSK1B, construct: Full length (from UniProt Q9BXA7) | 1.9
CSNK1A1L, construct: Full length (from UniProt Q8N752) | 1.08
CSNK1G3, construct: Full length (from UniProt Q9Y6M4) | 0.989

Same assay, conditions: M fixed; at -1

Substance | relative phosphorylation
CIT, construct: aa1-449 (from UniProt O14578) | 0.888
PAK1, construct: aa150-end (from UniProt Q13153) | 0.927
CAMK2D, construct: Full length (from UniProt Q13557) | 1.15
CDKL1, construct: aa2-304 (from UniProt Q00532) | 1.19
